What all share (assay): EMSA
(In general: Mobility shift assays separate free from complexed probe on a gel.)

In data set [1] the target is T1, ORC1 full length (Homo sapiens, UniProt Q13415 1-861).
T1 sequence: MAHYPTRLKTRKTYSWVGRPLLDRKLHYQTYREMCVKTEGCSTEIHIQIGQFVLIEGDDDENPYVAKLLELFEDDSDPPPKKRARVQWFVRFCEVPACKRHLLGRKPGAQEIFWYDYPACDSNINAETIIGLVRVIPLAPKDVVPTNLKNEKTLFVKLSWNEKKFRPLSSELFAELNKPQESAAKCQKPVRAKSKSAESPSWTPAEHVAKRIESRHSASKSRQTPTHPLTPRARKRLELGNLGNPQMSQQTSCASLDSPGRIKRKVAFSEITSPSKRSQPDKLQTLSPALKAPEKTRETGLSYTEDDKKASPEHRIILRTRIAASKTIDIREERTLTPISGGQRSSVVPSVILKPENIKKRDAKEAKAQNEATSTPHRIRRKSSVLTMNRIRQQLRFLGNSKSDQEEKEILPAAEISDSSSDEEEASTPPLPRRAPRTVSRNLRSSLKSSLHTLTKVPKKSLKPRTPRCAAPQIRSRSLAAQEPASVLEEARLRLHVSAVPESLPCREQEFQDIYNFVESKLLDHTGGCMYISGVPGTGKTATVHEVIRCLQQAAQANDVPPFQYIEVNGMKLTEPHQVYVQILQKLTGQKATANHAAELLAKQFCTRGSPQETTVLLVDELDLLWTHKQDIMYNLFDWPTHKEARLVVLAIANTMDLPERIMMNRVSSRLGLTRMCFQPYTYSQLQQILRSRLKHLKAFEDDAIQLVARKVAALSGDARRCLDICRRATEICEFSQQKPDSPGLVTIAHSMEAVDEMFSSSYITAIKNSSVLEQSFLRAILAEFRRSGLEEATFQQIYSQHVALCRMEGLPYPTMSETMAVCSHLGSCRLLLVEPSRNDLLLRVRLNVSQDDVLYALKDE

Data set [2] deals with T1, ORC1 full length. This is another data set of the same source.
Data set [3] addresses T2, ORC1 BAH domain (Homo sapiens, UniProt Q13415 1-200).
T2 sequence: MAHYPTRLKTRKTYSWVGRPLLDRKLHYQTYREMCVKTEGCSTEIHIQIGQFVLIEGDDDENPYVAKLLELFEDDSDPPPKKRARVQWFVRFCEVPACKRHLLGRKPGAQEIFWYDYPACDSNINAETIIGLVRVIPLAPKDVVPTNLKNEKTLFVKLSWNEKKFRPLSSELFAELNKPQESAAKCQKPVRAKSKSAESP

Data set [4] concerns the target T3, ORC1 WHD (Homo sapiens, UniProt Q13415 783-861).
T3 sequence: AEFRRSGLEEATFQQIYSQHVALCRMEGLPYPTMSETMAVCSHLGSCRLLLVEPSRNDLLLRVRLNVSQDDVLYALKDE

Data set [5] deals with T4, ORC1 mutant (EYYE) (Homo sapiens, UniProt Q13415 1-861, R297E;S450Y;T593Y;R846E).
T4 sequence: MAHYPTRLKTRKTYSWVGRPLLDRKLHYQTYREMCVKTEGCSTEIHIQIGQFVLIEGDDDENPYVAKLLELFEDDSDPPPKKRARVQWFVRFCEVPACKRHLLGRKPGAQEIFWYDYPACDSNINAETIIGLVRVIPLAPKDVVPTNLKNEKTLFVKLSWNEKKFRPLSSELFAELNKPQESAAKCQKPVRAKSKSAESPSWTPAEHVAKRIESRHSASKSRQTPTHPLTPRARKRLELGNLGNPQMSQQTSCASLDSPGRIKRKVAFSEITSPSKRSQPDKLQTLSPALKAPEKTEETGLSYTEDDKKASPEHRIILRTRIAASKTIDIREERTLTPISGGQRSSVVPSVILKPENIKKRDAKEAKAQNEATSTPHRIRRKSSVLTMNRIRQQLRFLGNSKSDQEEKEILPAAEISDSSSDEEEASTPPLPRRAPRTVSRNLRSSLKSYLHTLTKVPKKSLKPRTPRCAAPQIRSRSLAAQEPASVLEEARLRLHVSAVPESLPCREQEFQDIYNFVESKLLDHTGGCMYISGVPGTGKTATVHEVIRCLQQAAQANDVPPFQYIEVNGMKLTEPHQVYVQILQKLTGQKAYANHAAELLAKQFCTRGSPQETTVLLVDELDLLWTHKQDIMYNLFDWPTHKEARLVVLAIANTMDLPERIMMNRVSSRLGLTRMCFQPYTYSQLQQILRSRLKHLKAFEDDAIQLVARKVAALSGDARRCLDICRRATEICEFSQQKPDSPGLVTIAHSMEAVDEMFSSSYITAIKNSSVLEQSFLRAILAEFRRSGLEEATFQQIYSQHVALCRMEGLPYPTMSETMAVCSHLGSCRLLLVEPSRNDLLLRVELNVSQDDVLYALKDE

The target in data set [6] is T1, ORC1 full length. The source holds these as a separate data set.

The text below walks through data of PMC13500710.

Like-named read-outs stand apart in the source and are kept apart here.

For CAGCCGCCCACUUUUGACAGGCCUGGGCGGGCUUCGCUUA (ssRNA) [MYC1, 32P], in data set [1], the binding result is “no binding”.

On to CAGCCGCCCACUUUUGACAGGCCUGGGCGGGCUUCGCUUA (ssRNA) [MYC1, biotinylated], for which, in data set [2], the binding result is given as “no binding”.

Turning to GTACGCGCGTGGCGTGGCGGTGGGCGCGCAGTGCGTTCTC (ssDNA) [dRM9], the binding result in data set [1] was “no binding”.

With GAGAACGCACUGCGCGCCCACCGCCACGCCACGCGCGUAC (ssRNA) [RM9, biotinylated], the binding result in data set [3], in data set [4] and in data set [5] was “no binding” throughout.

As for GAGCUCCCAAAUCUCUCCAGAUCUGCUAUCUCUCCUUCCU (ssRNA) [MYC2], the binding result in data set [6] is given as “no binding”.

With GAUGGGAGGAAACGCUAAAGCCCAAGGUUUCAGAGGUGAU (ssRNA) [MYC3], in data set [6], the binding result was “no binding”.
